Results on one protein are retold here after patent publication US8247352B2, “Method of inhibiting ethylene production in plants” (The Regents of the University of California, priority 2005, dated 2012).

As a reminder, the kcat is the maximal rate divided by the concentration of active sites.

Assay in all cases: Initial velocity assays (rate of oxygen consumption) with ACC or substrate analogs
What all share (format): biochemical, Lycopersicon esculentum
Holding throughout (conditions): other: O2 consumption, 25° C., pH 7.2, [Ascorbate] = 30 mM, [O2] = 258 μM, [CO2/bicarbonate] = 20 mM

Substrate in data set [1]: C[C@@H](N)C(=O)O
Method: (§1) Initial velocities were measured by the rate of oxygen consumption at 25° C., pH 7.2, using a YSI model 5300 biological oxygen monitor as previously described (Thrower 2001) with minor modifications. Standard reaction mixture (1 ml) contained 100 mM MOPS, pH 7.2, 20 mM NaHCO3, 100 mM NaCl, 20 mM sodium ascorbate, 0.1 mg/ml BSA, and ACC or substrate analog at various concentrations. Oxygen concentrations were kept at atmospheric concentration and determined using the oxygen monitor that was calibrated with air saturated water (258 μM oxygen at 25° C.). Reactions were initiated with 2 μL ACCO reconstituted with equimolar Fe(NH4)2(SO4)2. Data from initial velocity experiments with varying substrate concentrations were fitted to the Michaelis-Menton equation using the program Kalideograph.
(§2) The dependence of the initial velocity of oxygen consumption by ACCO:Fe(II) on the concentration of ACC or several substrate analogs was determined (Table 1). Either cyclic substrate analogs (including inhibitor Me-ACC, ACC-NH2, or ACC-OMe) or acyclic substrate analogs (AIB, D-Ala, or Gly) were used. […] Ascorbate and oxygen concentrations were kept constant at 30 mM and ˜258 μM, respectively.
Substrate in data set [2]: NC1(C(=O)O)CC1
Method: as §1, §2
Substrate in data set [3]: CC(C)(N)C(=O)O
Method: as §1, §2

B1: ACC Oxidase (ACCO, ACO1) (Solanum lycopersicum) (protein)
chain: MENFPIINLEKLNGDERANTMEMIKDACENWGFFELVNHGIPHEVMDTVEKMTKGHYKKCMEQRFKELVASKGLEAVQAEVTDLDWESTFFLRHLPTSNISQVPDLDEEYREVMRDFAKRLEKLAEELLDLLCENLGLEKGYLKNAFYGSKGPNFGTKVSNYPPCPKPDLIKGLRAHTDAGGIILLFQDDKVSGLQLLKDEQWIDVPPMRHSIVVNLGDQLEVITNGKYKSVLHRVIAQTDGTRMSLASFYNPGSDAVIYPAKTLVEKEAEESTQVYPKFVFDDYMKLYAGLKFQAKEPRFEAMKAMESDPIASA
notes: made in house; host or cells: Escherichia coli BL21 (DE3)pLysS
As to B1, the Km in data set [1] turned out to be 4.42 ± 0.49 mm; in data set [2] it was 0.099 ± 0.018 mm; in data set [3], 0.92 ± 0.29 mm. Also, the kcat worked out at 0.497 ± 0.015 s⁻¹ in data set [1], 0.607 ± 0.0233 s⁻¹ in data set [2] and 0.368 ± 0.0267 s⁻¹ in data set [3].
